Experimental data reported in the nanobody polyreactivity screen of Harvey et al. (2022).

Assay: yeast display, Sf9 membrane polyspecificity reagent, FACS + sequencing; frameworks hold sequencing errors
How it was run: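 Nanobodies came from a synthetic yeast display library in Saccharomyces cerevisiae BJ5465, induced with galactose for 36–48 hours and stained for 1 hour at 4 °C with 10% biotinylated, detergent-solubilized Sf9 membrane reagent. Cells were enriched on streptavidin microbeads and then FACS-sorted, with low and high (top ~1%) gates set on anti-HA fluorescence for expression and streptavidin fluorescence for reagent binding. Each polyreactivity label reflects the gate a clone came from. Genes were amplified by colony PCR, sequenced by MiSeq 2 × 250 and filtered by CDR length.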

**Q.** For “QVQLVESGGGLVQAGGSLRLSCAASGFTFPPYGMGWYRQAPGKERELVASISIGGGTYYADSVKGRFTISRDNAQNTVYLQMNSLKPEDTPVYYCAADLGQWSYYEFDYWGQGTQVTVSS”, which “polyreactivity (PSR sort gate)” value is on record?
**A.** low polyreactivity

**Q.** Which “polyreactivity (PSR sort gate)” value does the source give for “QVQLVESGGGLVQAGGSLRLSCAASGFTFPQYAMGWYIQAPGKERELVASITRRGGSTFYADSVKGRFTISRDNAKNTVYLQMNSLKPEDTAVYYSAAGDYSRSVSRYWYTDYDYWGQGTQVTVSS” here?
**A.** high polyreactivity

**Q.** For “QVQLVESGGGLVQAGGSLRLSCAASGFTFPRYVMGWYRQAPGKEREFVAAITFSGGSTYYADSVKGRFTNSRDNAKNTVYLQMNSLKPEDTAVYYCAAGASLWRLGLKMGYWGQGTQVTVSS”, which “polyreactivity (PSR sort gate)” value is on record?
**A.** low polyreactivity

**Q.** With “QVQLVESGGGLVQAGGSLRLSCAASGFTFPTYAMGWYRQAPGKERELVAAISTSGARTYYADSVKGRFTISRDNAKNTVYLQMNSLKPEDTAVYYCAVGSIYTIGFRKGYRFDYWGQGTQVTVSS” as the sequence, how does the “polyreactivity (PSR sort gate)” value read?
**A.** high polyreactivity

**Q.** Which “polyreactivity (PSR sort gate)” value does the source give for “QVQLVESGGGLVQAGGSLRLSCAASGFTFPVYAMGWYRQATGKVRELVAAISRRGGRTYYADSVKGRFTISRDNAKNTVSLQMNSLKPEDTAVYYCNKGETLYGSVPYDYWGQGTQVTVSS” here?
**A.** high polyreactivity

**Q.** Which “polyreactivity (PSR sort gate)” value does the source give for “QVQLVESGGGLVQAGGSLRLSCAASGFTFPVYTMGWYSQAPGKERELVAAISTAGAGTYYADSVKGRFTISRDNAKNTVYLQMNSLKPEDTAVYYCAAYKRGRPEMDYWGQGTQVTVSS” here?
**A.** high polyreactivity

**Q.** With “QVQLVESGGGLVQAGGSLRLSCAASGFTFPWYAMGWYRQAPGKERELVAAISIGTGRTYYADSVKGRFTISRDNAKNTVYLQMNSLKPEDTAVYYCAAEDQYYEDGYWGQGTQVTVSS” as the sequence, how does the “polyreactivity (PSR sort gate)” value read?
**A.** high polyreactivity

**Q.** For “QVQLVESGGGLVQAGGSLRLSCAASGFTFPWYAMGWYRQAPGKERELVAALTGSGGSTDYADSVKGRFTISRDNAKNTVYLQMNSLKPEDTAVYYCNAGKTIDYRDGVGYDHWGQGTQVTVSS”, which “polyreactivity (PSR sort gate)” value is on record?
**A.** low polyreactivity

**Q.** Which “polyreactivity (PSR sort gate)” value does the source give for “QVQLVESGGGLVQAGGSLRLSCAASGFTFPWYAMGWYSQAPGKERELVAAITSGGGSTYYADSVKGRFTISRDYAKNTVYLQMNSLKPEDTAVYYCAAVPALKWYGYEYWGQGTQVTVSS” here?
**A.** high polyreactivity

**Q.** With “QVQLVESGGGLVQAGGSLRLSCAASGFTFPYNAMGWYRQAPVTERELVAAMSRGGGRTYYADSVKGRFTISRDNAKNTVNLQMNSLKPEDTAVYYCAKSPGQDTPYPYGYWGQGTQETVSS” as the sequence, how does the “polyreactivity (PSR sort gate)” value read?
**A.** high polyreactivity

**Q.** For “QVQLVESGGGLVQAGGSLRLSCAASGFTFPYNGMGWYRQAPGKERELVASISWSGASTYYADSVKGRFTISRDNAKNTVYLQMNSLKPEDTAVYYCASDPGYYSWGSSQDDYWGQGTQVTVSS”, which “polyreactivity (PSR sort gate)” value is on record?
**A.** low polyreactivity

**Q.** Which “polyreactivity (PSR sort gate)” value does the source give for “QVQLVESGGGLVQAGGSLRLSCAASGFTFPYYAMGWYRQAPGKERELVATIRSGGSTYYADSVKGRFTISRDNAKNTVYLQMNSLKPEDTAVYYCAKYQVLYSYDKYGYWGQGTQVTVSS” here?
**A.** low polyreactivity

**Q.** With “QVQLVESGGGLVQAGGSLRLSCAASGFTFQGNVMGWYRQAPGKERELVAASTGGGGDTYSADSVKGRFTISRDNAKNTVYLQMNSLKPEDTAVYYCAAEVAPEWYWPWFFDYADGYWGQGTQVTLSS” as the sequence, how does the “polyreactivity (PSR sort gate)” value read?
**A.** high polyreactivity

**Q.** Which “polyreactivity (PSR sort gate)” value does the source give for “QVQLVESGGGLVQAGGSLRLSCAASGFTFQKNAMGWNRQAPGKERDLVARITRSDGSTYYADSVKGRFTISRDNAKNTVYLPMNSLKPEDTAVYYWAARYCRLGSSRGGYWGQCTQVTVSS” here?
**A.** low polyreactivity

**Q.** Which “polyreactivity (PSR sort gate)” value does the source give for “QVQLVESGGGLVQAGGSLRLSCAASGFTFQRYTMGWYRQAPGKERELVAAISWSGGSTYYADSVKGRFTISRDNAKNSVYLQMNSLKPEDTAVYYCAAYRVIPYLSDYWGEGTQVTVSS” here?
**A.** high polyreactivity

**Q.** With “QVQLVESGGGLVQAGGSLRLSCAASGFTFQSYAMGWYRQAPGKESELVAAISWSGGSTYYADSVKGRFTISRDNAKNTVYLEMNSLKPEDTAVYYCAADAPRSYRFGYWGQGTQVTVSS” as the sequence, how does the “polyreactivity (PSR sort gate)” value read?
**A.** high polyreactivity

**Q.** With “QVQLVESGGGLVQAGGSLRLSCAASGFTFQYNAMGWYRQAPGKERELVAAITWTGTSTYADSVKGRFTISRDNAKNTVYLQLNSLKPEDTAVYYCAARYYAPRWFSYDYWGQGTQVTVSS” as the sequence, how does the “polyreactivity (PSR sort gate)” value read?
**A.** low polyreactivity

**Q.** Which “polyreactivity (PSR sort gate)” value does the source give for “QVQLVESGGGLVQAGGSLRLSCAASGFTFQYYAMGWYRQAPGKERELVAAISWGGGSTYYADSVKGRFTISRDNAKNTVYLQMNSLKPEDTAVYYCNAYEYLSAGYDYWGQGTQVTVSS” here?
**A.** low polyreactivity

**Q.** For “QVQLVESGGGLVQAGGSLRLSCAASGFTFQYYAMGWYRQAPGKERELVAAISWSGGSTYYADSVKGRFTISRDNAKNTVYLQMNSLKPEDTAVYYCAAAPYTYPLGFDYWGQGTQVTVSS”, which “polyreactivity (PSR sort gate)” value is on record?
**A.** high polyreactivity

**Q.** Which “polyreactivity (PSR sort gate)” value does the source give for “QVQLVESGGGLVQAGGSLRLSCAASGFTFRAYAMGWYRQAPGKERELVAAISRSGTSTYYADSVKGRFTISRDNAKYTVYLQMNSLKPEDTAVYYCAARLGPYHYATKMYYWGQGTQVTVSS” here?
**A.** high polyreactivity

**Q.** For “QVQLVESGGGLVQAGGSLRLSCAASGFTFRAYAMGWYRQAPGKERELVAAITYSGDRTYYADSVKGRFTISRDNAKNTVYLQMNSLKPEDTAVYYCAAYGAKVNRPGYYYWGQGTQVTVSS”, which “polyreactivity (PSR sort gate)” value is on record?
**A.** high polyreactivity

**Q.** For “QVQLVESGGGLVQAGGSLRLSCAASGFTFRDYAMGWYRPAPGKERELVAAIDIGTTTYYADSVKGRFTISRDNAKNTVYLQMNSLKPEDSAVYYCNKGTNRSGGYDSWGQGTQVTVSS”, which “polyreactivity (PSR sort gate)” value is on record?
**A.** low polyreactivity

**Q.** Which “polyreactivity (PSR sort gate)” value does the source give for “QVQLVESGGGLVQAGGSLRLSCAASGFTFRDYAMGWYRQAPGKERELVAVISDSGGRTYYADSVKGRFTISRDNAKNTVYLQMNSLKPEDTAVYYCAARGYRSGGGYNYWGQGTQVTVSS” here?
**A.** high polyreactivity

**Q.** With “QVQLVESGGGLVQAGGSLRLSCAASGFTFRFYVMGWYRQAPGKERELVAAISSGGGSTYYADSVKGRFTISRDNAKNTVYLQMNSLKPEDTAVYYCNALKVSFLTITKYEYWGQGTQVTVSS” as the sequence, how does the “polyreactivity (PSR sort gate)” value read?
**A.** high polyreactivity

**Q.** For “QVQLVESGGGLVQAGGSLRLSCAASGFTFRGNAMGWYRQAPGKERELVAAITWNGGSTYYADSVKGRFTISRDNAKNTVYLQMNSLKPEDTAVYYCAAQYGKKRQPRFNYWGQGTQVTVSS”, which “polyreactivity (PSR sort gate)” value is on record?
**A.** high polyreactivity

**Q.** With “QVQLVESGGGLVQAGGSLRLSCAASGFTFRGYAMGWYRQAPGIERELVATISRRAASTYYADTVKGRFTISRDNAKNTVYLLMNSLKPEDTAVYYCAKVNRYDDDRDGFGYWGHGTQVTVSS” as the sequence, how does the “polyreactivity (PSR sort gate)” value read?
**A.** high polyreactivity

**Q.** Which “polyreactivity (PSR sort gate)” value does the source give for “QVQLVESGGGLVQAGGSLRLSCAASGFTFRGYAMGWYRQAPGKERELVASITYRGGSTYYADSVKGRFTISRDNAKNTVYLQMNSLKPEDTADYYCNAGFGGRRRQDAFIGTSIYDYWGQGTQVTVSS” here?
**A.** low polyreactivity

**Q.** With “QVQLVESGGGLVQAGGSLRLSCAASGFTFRHNVMGWYRQAPGKERELVATITWSGGRTSYADSVKGRFTISRDNAKNTVYLQMKSLKPEDTAVYYCAARFFSYSQYAYNYWGQGTQVTVSS” as the sequence, how does the “polyreactivity (PSR sort gate)” value read?
**A.** high polyreactivity

**Q.** For “QVQLVESGGGLVQAGGSLRLSCAASGFTFRIYAMGWYRQAPGKERELVAAITWSGGSTSYADSVKGRFTISRDNAKNTVYLQMNSLKPEDTAVYYCAAETKYSGAYPYDYWGQGTQVTVSS”, which “polyreactivity (PSR sort gate)” value is on record?
**A.** high polyreactivity

**Q.** Which “polyreactivity (PSR sort gate)” value does the source give for “QVQLVESGGGLVQAGGSLRLSCAASGFTFRKYVMGWYRQAPGKERELVAGISRSGSRTYYADSVKGRFTISRDNAKNTVYLQMNSLKPEDTAVYYCAASRYGKNGKYHYWGQGTQVTVSS” here?
**A.** high polyreactivity

**Q.** With “QVQLVESGGGLVQAGGSLRLSCAASGFTFRLNAMGWYRQAPGKERELVAAITRSGGNTYYADSVKGRFTISRDNAKNTVYLQMNSLKPEDTAVYYCAVRQLDRRSPKYNYWGQGTQVTVSS” as the sequence, how does the “polyreactivity (PSR sort gate)” value read?
**A.** high polyreactivity

**Q.** For “QVQLVESGGGLVQAGGSLRLSCAASGFTFRNNAMGWYRQAPGKDRELVAAITARGGSTYYADSVKGRFTISRDNAKNTVYLQMNSLKPEDTAVYYCATDDYPWGRHPWYAGYDSWGQGTQVTVSS”, which “polyreactivity (PSR sort gate)” value is on record?
**A.** low polyreactivity

**Q.** With “QVQLVESGGGLVQAGGSLRLSCAASGFTFRNYAMGWYRKAPGKERELVATIDRGTTSTYYADSVKGRFTISRDNAKNTVYLQMNSLKPEDTAVYYCAARAWRYGYGYWGQGTQVTVSS” as the sequence, how does the “polyreactivity (PSR sort gate)” value read?
**A.** high polyreactivity

**Q.** Which “polyreactivity (PSR sort gate)” value does the source give for “QVQLVESGGGLVQAGGSLRLSCAASGFTFRQNAKGWYRQAPGKERELVAVITKSAGSTYYADSVKGRFTISRDNAKNTVYLQMNSLKPEDTAVFYCNKRQRFVSSFRRSQGIGWEDDYWGQGTQVTVSS” here?
**A.** low polyreactivity

**Q.** With “QVQLVESGGGLVQAGGSLRLSCAASGFTFRQNAMGWYRQAPRKERELVAAISSGGRTKYADSVKGRFTISRDNANNTVYLHMNSLKPEDTALYYCAADKRVYTQLNDSWGQGTQVTVSS” as the sequence, how does the “polyreactivity (PSR sort gate)” value read?
**A.** high polyreactivity

**Q.** Which “polyreactivity (PSR sort gate)” value does the source give for “QVQLVESGGGLVQAGGSLRLSCAASGFTFRRNAMGWYRQAPGKEWEFVAAITGRGTGTYYADSVKGRFTISRDNAKNTVYLQMYILKPEDTAGYYCNDDPVRYLFNRYDYWGQGTQVTVSS” here?
**A.** high polyreactivity

**Q.** For “QVQLVESGGGLVQAGGSLRLSCAASGFTFRRYAMGRYRQAPGKERELVAAISRSTGSTYYADSVKGRFSLSRDNAKNSVYLQMNSLKPEDTAVFYCNVAGSARVNTLVLSYEYWGQGSQVTVSS”, which “polyreactivity (PSR sort gate)” value is on record?
**A.** high polyreactivity

**Q.** With “QVQLVESGGGLVQAGGSLRLSCAASGFTFRRYVMGWYRQAPGKERELVAAISSGGRTNYADSVKGRFTISRYNAKNTVYLQMNSLKPEDTAVYYCGYLDRYHHLRYWGQGTQVTVSS” as the sequence, how does the “polyreactivity (PSR sort gate)” value read?
**A.** high polyreactivity

**Q.** Which “polyreactivity (PSR sort gate)” value does the source give for “QVQLVESGGGLVQAGGSLRLSCAASGFTFRSNAMGWSRQAPGKERELVAAISYSGGDTYYADSVKGRFTISRDNAKNTVYLQMNSLKPEDTAVYYCAADDPASPLGEYWGQGTQVSVSS” here?
**A.** low polyreactivity

**Q.** For “QVQLVESGGGLVQAGGSLRLSCAASGFTFRSYAMGLYRQAPGKEREFVAAINGRSGSTYADSVKGRFTISRDNAKNTVYLQMISLKPEDTAVYYCAARVRRGSTQAQFYYWGQGTQVTVSS”, which “polyreactivity (PSR sort gate)” value is on record?
**A.** high polyreactivity
